The supplement of paper PMC7125110
± gives the standard error. For some of these results: This sample holds only a part of the variants without activity.

B1: glmS ribozyme (parent)
chain: AUAAAAGCGCCAGAACUACAGAAAUGUAGUUGACGAGGAGGAGGUUUAUCGAAUUUUCGGCGGAUGCCUCCAAA

Experiments:
Details in all cases: with glucosamine-6-phosphate
[1] = variants of: B1; assay: kcat; higher = faster cleavage; RNA array
Procedure, shortened: (§1)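 Tiles of sequenced MiSeq chips were imaged over ~14 h at 37 °C. On them, barcoded ribozyme variants had been transcribed in situ by E. coli RNA polymerase and were tracked via a hybridised Cy3 probe while glucosamine-6-phosphate (40 μM to 10 mM) in HEPES/KCl/Mg(OAc)2 buffer flowed in. Per-tile medians, normalised to baseline and to non-cleaving reference variants, were fit to one- or two-exponential decays for kobs, and weighted Michaelis–Menten fits gave kcat and KM.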

[2] = variants of: B1; assay: KM; higher = weaker cofactor use; RNA array
Procedure, shortened: as §1

[3] = variants of: B1; assay: self-cleavage kobs at 40 uM GlcN6P; higher = faster cleavage; RNA array
Procedure, shortened: as §1

[4] = variants of: B1; assay: self-cleavage kobs at 160 uM GlcN6P; higher = faster cleavage; RNA array
Procedure, shortened: as §1

[5] = variants of: B1; assay: self-cleavage kobs at 640 uM GlcN6P; higher = faster cleavage; RNA array
Procedure, shortened: as §1

[6] = variants of: B1; assay: self-cleavage kobs at 2500 uM GlcN6P; higher = faster cleavage; RNA array
Procedure, shortened: as §1

[7] = variants of: B1; assay: self-cleavage kobs at 10000 uM GlcN6P; higher = faster cleavage; RNA array
Procedure, shortened: as §1

Row | Variant | kcat [1] [s⁻¹] | KM [2] [µM] | self-cleavage kobs at 40 uM GlcN6P [3] [s⁻¹] | self-cleavage kobs at 160 uM GlcN6P [4] [s⁻¹] | self-cleavage kobs at 640 uM GlcN6P [5] [s⁻¹] | self-cleavage kobs at 2500 uM GlcN6P [6] [s⁻¹] | self-cleavage kobs at 10000 uM GlcN6P [7] [s⁻¹]
1 | C11U U55A | 0.00167 ± 0.0004 | 1260 ± 470 | 6.97e-05 ± 1.2e-05 | 0.000177 ± 3.7e-05 | 0.000478 ± 9.1e-05 | 0.000891 ± 0.0002 | 0.0018 ± 0.00026
2 | G44C C70U | < 1e-05 |  | < 1e-05 |  |  |  | 
3 | C16U C70A | 0.000203 ± 1.9e-05 | 296 ± 79 |  | 7.15e-05 ± 9.6e-06 | 0.000148 ± 2.1e-05 | 0.000204 ± 2.2e-05 | 0.000177 ± 2e-05
4 | G35U C50A | 8.05e-05 ± 9.8e-06 | 1970 ± 740 |  |  |  | 4.74e-05 ± 9e-06 | 6.59e-05 ± 1.2e-05
5 | G29U U47G | 0.000866 ± 0.00021 | 1600 ± 640 |  | 0.00011 ± 2.1e-05 | 0.000215 ± 3.4e-05 | 0.000515 ± 0.00015 | 0.000787 ± 0.00012
6 | A33C A42G | 0.00107 ± 0.0002 | 5240 ± 1500 |  |  | 0.000127 ± 2e-05 | 0.000266 ± 0.0001 | 0.000716 ± 0.00011
7 | A39C | 0.00949 ± 0.0017 | 2180 ± 510 | 0.000188 ± 3.3e-06 | 0.000491 ± 1.8e-05 | 0.00208 ± 7.2e-05 | 0.00591 ± 0.00018 | 0.00752 ± 0.00019
8 | G13A G37U | 1.65e-05 ± 1.7e-06 | 621 ± 190 | < 1e-05 |  |  |  | < 1e-05
9 | A12U G13U | 0.000141 ± 9.1e-06 | 1130 ± 200 |  |  | 5.07e-05 ± 9.6e-06 | 9.95e-05 ± 1.1e-05 | 0.000123 ± 1.8e-05
10 | A15U G41A | 0.000124 ± 3.5e-05 |  |  |  | 6.09e-05 ± 1.6e-05 | 0.000147 ± 2.5e-05 | 8.75e-05 ± 2.5e-05
11 | C58A U65G | 5.13e-05 ± 1.3e-05 |  |  |  |  | 4.93e-05 ± 1.3e-05 | 4.32e-05 ± 1.3e-05
12 | G13U A53U | 0.00139 ± 4.1e-05 | 3550 ± 190 |  | 5.58e-05 ± 2e-05 | 0.000213 ± 3.9e-05 | 0.000584 ± 0.00011 | 0.00103 ± 0.00011
13 | G62U C67A | < 1e-05 |  | < 1e-05 |  |  |  | < 1e-05
14 | A42G C71U | 0.0155 ± 0.0039 | 732 ± 250 | 0.000864 ± 0.0001 | 0.00294 ± 0.00058 | 0.0053 ± 0.0011 | 0.0147 ± 0.0047 | 0.0178 ± 0.0034
15 | A39U C58U | 1.89e-05 ± 1e-06 |  |  |  |  |  | 
